Measured values published in PMC3904923.

Assays:
[1] = target: Kv7.2 helix B (hB residues S450–S590) (human); experiment: other fluorescence titration; competition: 12.5 nM D-CaM mixed with helix A (65.6 nM) or helix B (42.6 nM), isolated lobe added incrementally; with Ca2+; one site Hill fit, Kd derived assuming 1:1 binding
[2] = target: Kv7.2 helix B (hB residues S450–S590) (human); experiment: other fluorescence titration; competition: 12.5 nM D-CaM mixed with helix A (46.4 nM) or helix B (20.1 nM), isolated lobe added incrementally; no Ca2+; one site Hill fit, Kd derived assuming 1:1 binding
[3] = target: dansylated calmodulin (rat) (UniProt P0DP30); experiment: other fluorescence titration; 12.5 nM D-CaM, ligand added incrementally, enhancement of dansyl emission; 25 mM Tris-HCl, 120 mM KCl, 5 mM NaCl, 2 mM MgCl2, 10 mM EGTA, pH 7.4; no free Ca2+; apparent affinity (EC50 of a Hill fit)
[4] = target: dansylated calmodulin (rat) (UniProt P0DP30); experiment: other fluorescence titration; 12.5 nM D-CaM, ligand added incrementally, enhancement of dansyl emission; D-CaM binding buffer with 3.9 µM free Ca2+ (9.63 mM Ca2+, 2 mM Mg2+, 10 mM EGTA, pH 7.4); apparent affinity (EC50 of a Hill fit)

Substance | IC50 [1] | Kd [1] | IC50 [2] | Kd [2] | EC50 [3] | EC50 [4]
CaM C-lobe (residues 79–148) (from UniProt P0DP23 80-149) (domain or fragment) | 244 nM | 229 nM | 238 nM | 231 nM |  | 
CaM N-lobe (residues 1–78) (from UniProt P0DP23 2-79) (domain or fragment) | 415 nM | 414 nM | 130 nM | 119 nM |  | 
Kv7.2 CaM binding domain (residues 310–548), Q2AB WT (domain or fragment) |  |  |  |  | 11 nM | 27.1 nM
Kv7.2 helix B (hB residues S450–S590) (domain or fragment) |  |  |  |  | 20.1 nM | 42.6 nM
